The values below come from US20180155451A1 (published 2018).

The target in assay [1] is T1, FcγRIIb (human, UniProt P31994 43-217).
T1 construct: extracellular domain; also called FcgRIIb; 2b
T1 sequence (looked up): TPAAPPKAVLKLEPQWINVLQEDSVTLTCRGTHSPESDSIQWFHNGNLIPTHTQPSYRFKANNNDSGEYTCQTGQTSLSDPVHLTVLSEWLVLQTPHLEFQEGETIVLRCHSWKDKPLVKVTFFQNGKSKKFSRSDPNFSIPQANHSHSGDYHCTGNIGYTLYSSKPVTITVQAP
The assay is described as follows: SPR (Biacore), antibody captured on antigen-peptide chip, FcγR as analyte; binding relative to GpH7-A5/GpH7-B3/GpL16-k0 = 100.

The target of assay [2] is T2, FcγRIIa H (human, UniProt P12318 34-217).
T2 construct: extracellular domain; also called FcgRIIa H type; 2aH
T2 sequence (looked up): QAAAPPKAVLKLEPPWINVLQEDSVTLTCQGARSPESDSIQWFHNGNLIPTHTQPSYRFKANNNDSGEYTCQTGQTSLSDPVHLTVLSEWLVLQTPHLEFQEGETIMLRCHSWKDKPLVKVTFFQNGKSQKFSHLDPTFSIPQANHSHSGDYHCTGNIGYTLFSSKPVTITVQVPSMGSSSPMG
The assay is described as above.

The target in assay [3] is T3, FcγRIa (human, UniProt P12314 16-292).
T3 construct: extracellular domain; also called FcgRI; 1a; not shown: His tag at the C terminus
T3 sequence (P12314 16-292): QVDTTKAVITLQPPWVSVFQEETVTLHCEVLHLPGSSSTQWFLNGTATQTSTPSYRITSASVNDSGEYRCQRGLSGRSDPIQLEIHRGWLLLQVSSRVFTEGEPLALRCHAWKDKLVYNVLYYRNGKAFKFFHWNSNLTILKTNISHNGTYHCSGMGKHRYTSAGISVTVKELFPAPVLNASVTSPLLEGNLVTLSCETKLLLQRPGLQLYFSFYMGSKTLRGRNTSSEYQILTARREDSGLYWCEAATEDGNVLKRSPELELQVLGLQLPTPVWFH
Description: SPR (Biacore), antibody captured, FcγR as analyte; binding as % of GpH7-A5/GpH7-B3/GpL16-k0. In general terms: SPR reads the build-up and loss of mass on a sensor chip optically.

Assay [4] concerns the target T4, FcγRIIb (human, UniProt P31994 43-217).
T4 construct: extracellular domain; also called FcgRIIb; 2b; not shown: His tag at the C terminus
T4 sequence (looked up): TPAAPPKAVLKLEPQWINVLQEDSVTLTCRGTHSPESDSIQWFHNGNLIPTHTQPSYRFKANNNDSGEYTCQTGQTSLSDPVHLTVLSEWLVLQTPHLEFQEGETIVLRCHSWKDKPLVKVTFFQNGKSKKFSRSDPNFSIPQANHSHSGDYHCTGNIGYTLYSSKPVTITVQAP
The assay is described as above.

For assay [5], the target named is T5, FcγRIIIa extracellular domain with C-terminal His tag (human, UniProt P08637 17-208).
T5 construct: extracellular domain; also called FcgRIIIa; 3a; not shown: His tag at the C terminus
T5 sequence (P08637 17-208): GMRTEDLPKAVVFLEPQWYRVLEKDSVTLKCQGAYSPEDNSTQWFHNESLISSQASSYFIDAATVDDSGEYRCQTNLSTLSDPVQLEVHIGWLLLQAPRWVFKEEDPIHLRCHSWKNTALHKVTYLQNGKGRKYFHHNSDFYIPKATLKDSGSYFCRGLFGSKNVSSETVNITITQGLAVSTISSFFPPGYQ
The assay is described as follows: SPR (Biacore), antibody captured via antigen peptide, FcγR as analyte; binding relative to GpH7-A5/GpH7-B3/GpL16-k0 = 100.

In assay [6] the target is T6, FcγRIIb extracellular domain with C-terminal His tag (human, UniProt P31994 43-217).
T6 construct: extracellular domain; also called FcgRIIb; 2b; not shown: His tag at the C terminus
T6 sequence (looked up): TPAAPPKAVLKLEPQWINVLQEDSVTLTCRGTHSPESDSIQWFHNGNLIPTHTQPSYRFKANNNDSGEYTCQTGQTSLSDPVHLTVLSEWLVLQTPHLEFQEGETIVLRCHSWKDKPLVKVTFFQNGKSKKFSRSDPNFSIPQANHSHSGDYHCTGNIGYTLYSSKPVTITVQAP
The assay is described as above.

B1: GpH7-A5/GpH7-B3 variant E333_04F/GpL16-k0 (antibody, human IgG1, kappa)
heavy 1: not shown
heavy 2: not shown
light: DIVMTQSPLSLPVTPGEPASISCQASESLVHSNRNTYLHWYLQKPGQSPQLLIYKVSNRFSGVPDRFSGSGSGTDFTLKISRVEAEDVGVYYCSQNTHVPPTFGQGTKVEIERTVAAPSVFIFPPSDEQLKSGTASVVCLLNNFYPREAKVQWKVDNALQSGNSQESVTEQDSKDSTYSLSSTLTLSKADYEKHKVYACEVTHQGLSSPVTKSFNRGEC
notes: Heterodimerized anti-glypican-3 IgG1; substitution in only one H chain (the GpH7-B3 chain); also called He Ab
B1: the He/Con_2b in assay [1] was 94.6 % of HeCon Ab. The He/Con_2aH in assay [2] is 102 % of HeCon Ab.

B2: GpH7-A5/GpH7-B3 variant E333_08L/GpL16-k0 (antibody, human IgG1, kappa)
heavy 1: not shown
heavy 2: not shown
light: DIVMTQSPLSLPVTPGEPASISCQASESLVHSNRNTYLHWYLQKPGQSPQLLIYKVSNRFSGVPDRFSGSGSGTDFTLKISRVEAEDVGVYYCSQNTHVPPTFGQGTKVEIERTVAAPSVFIFPPSDEQLKSGTASVVCLLNNFYPREAKVQWKVDNALQSGNSQESVTEQDSKDSTYSLSSTLTLSKADYEKHKVYACEVTHQGLSSPVTKSFNRGEC
notes: as for B1
For B2, the He/Con_2b in assay [1] is 95 % of HeCon Ab. For the same molecule, in assay [2], the He/Con_2aH was 102 % of HeCon Ab.

B3: GpH7-A5/GpH7-B3 variant I332_02A/GpL16-k0 (antibody, human IgG1, kappa)
heavy 1: not shown
heavy 2: not shown
light: DIVMTQSPLSLPVTPGEPASISCQASESLVHSNRNTYLHWYLQKPGQSPQLLIYKVSNRFSGVPDRFSGSGSGTDFTLKISRVEAEDVGVYYCSQNTHVPPTFGQGTKVEIERTVAAPSVFIFPPSDEQLKSGTASVVCLLNNFYPREAKVQWKVDNALQSGNSQESVTEQDSKDSTYSLSSTLTLSKADYEKHKVYACEVTHQGLSSPVTKSFNRGEC
notes: heterodimerized IgG1; alteration in the GpH7-B3 H chain only; also called He Ab
As for B3, the He/Con_1a in assay [3] is 88.3 % of control. In addition, the He/Con_2b in assay [4] was 103 % of control.

B4: GpH7-A5/GpH7-B3 variant I332_04F/GpL16-k0 (antibody, human IgG1, kappa)
heavy 1: not shown
heavy 2: not shown
light: DIVMTQSPLSLPVTPGEPASISCQASESLVHSNRNTYLHWYLQKPGQSPQLLIYKVSNRFSGVPDRFSGSGSGTDFTLKISRVEAEDVGVYYCSQNTHVPPTFGQGTKVEIERTVAAPSVFIFPPSDEQLKSGTASVVCLLNNFYPREAKVQWKVDNALQSGNSQESVTEQDSKDSTYSLSSTLTLSKADYEKHKVYACEVTHQGLSSPVTKSFNRGEC
notes: as for B3
Turning to B4, in assay [3], the He/Con_1a was 93.6 % of control. In assay [4], the He/Con_2b is 104 % of control.

B5: GpH7-A5/GpH7-B3 variant T335_06M/GpL16-k0 (antibody, human IgG1, kappa)
heavy 1: not shown
heavy 2: not shown
light: DIVMTQSPLSLPVTPGEPASISCQASESLVHSNRNTYLHWYLQKPGQSPQLLIYKVSNRFSGVPDRFSGSGSGTDFTLKISRVEAEDVGVYYCSQNTHVPPTFGQGTKVEIERTVAAPSVFIFPPSDEQLKSGTASVVCLLNNFYPREAKVQWKVDNALQSGNSQESVTEQDSKDSTYSLSSTLTLSKADYEKHKVYACEVTHQGLSSPVTKSFNRGEC
notes: He Ab: the mutation stands only in the GpH7-B3-derived H chain; also called He Ab T335M
As for B5, the He/Con_3a in assay [5] is 102 relative (control = 100). Also, the He/Con_2b in assay [6] was 99.4 relative (control = 100).

B6: GpH7-A5/GpH7-B3 variant T335_02A/GpL16-k0 (antibody, human IgG1, kappa)
heavy 1: not shown
heavy 2: not shown
light: DIVMTQSPLSLPVTPGEPASISCQASESLVHSNRNTYLHWYLQKPGQSPQLLIYKVSNRFSGVPDRFSGSGSGTDFTLKISRVEAEDVGVYYCSQNTHVPPTFGQGTKVEIERTVAAPSVFIFPPSDEQLKSGTASVVCLLNNFYPREAKVQWKVDNALQSGNSQESVTEQDSKDSTYSLSSTLTLSKADYEKHKVYACEVTHQGLSSPVTKSFNRGEC
notes: as for B1
In the case of B6, the He/Con_2b in assay [1] is 94 % of HeCon Ab. The He/Con_2aH in assay [2] was 101 % of HeCon Ab.

B7: GpH7-A5/GpH7-B3 variant I336_10E/GpL16-k0 (antibody, human IgG1, kappa)
heavy 1: not shown
heavy 2: not shown
light: DIVMTQSPLSLPVTPGEPASISCQASESLVHSNRNTYLHWYLQKPGQSPQLLIYKVSNRFSGVPDRFSGSGSGTDFTLKISRVEAEDVGVYYCSQNTHVPPTFGQGTKVEIERTVAAPSVFIFPPSDEQLKSGTASVVCLLNNFYPREAKVQWKVDNALQSGNSQESVTEQDSKDSTYSLSSTLTLSKADYEKHKVYACEVTHQGLSSPVTKSFNRGEC
notes: as for B1
As to B7, the He/Con_2b in assay [1] was 89.8 % of HeCon Ab. For the same molecule, the He/Con_2aH in assay [2] was 102 % of HeCon Ab.

B8: GpH7-A5/GpH7-B3 variant I336_18N/GpL16-k0 (antibody, human IgG1, kappa)
heavy 1: not shown
heavy 2: not shown
light: DIVMTQSPLSLPVTPGEPASISCQASESLVHSNRNTYLHWYLQKPGQSPQLLIYKVSNRFSGVPDRFSGSGSGTDFTLKISRVEAEDVGVYYCSQNTHVPPTFGQGTKVEIERTVAAPSVFIFPPSDEQLKSGTASVVCLLNNFYPREAKVQWKVDNALQSGNSQESVTEQDSKDSTYSLSSTLTLSKADYEKHKVYACEVTHQGLSSPVTKSFNRGEC
notes: as for B1
With B8, the He/Con_2b in assay [1] is 97.6 % of HeCon Ab. In addition, in assay [2], the He/Con_2aH was 103 % of HeCon Ab.
